Consider one substance from article doi:10.1101/2025.11.18.686377.

The assay deals with NGF^painless (NGF variant bearing R100E+P61S mutations) (human). Nature of the assay: native MS.

What is called stoichiometry N is the number of molecules, sites or subunits per partner or assembly. Substance “NGF^painless (NGF variant bearing R100E+P61S mutations) (ligand)” came in with a stoichiometry N of 2.
